± gives the uncertainty stated by the source.
Test: protein stability index of a GFP-peptide fusion (yeast GPS) (PSI 1-4); higher = more stable; sorted into four equal gates, so the index is relative within each strain
How it was run: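 Mid-log yeast cultures in leucine-free medium, carrying a pooled plasmid library, were sorted into four equal gates by their GFP/Cherry fluorescence ratio. Each plasmid expressed Cherry along with GFP fused upstream of a tiled 17-residue yeast protein peptide. Plasmids recovered from each gate were PCR-amplified and Illumina-sequenced, with reads assigned to strains by barcodes. The protein stability index was obtained by summing each gate's read frequency weighted by its gate number.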

Row | Sequence | protein stability index (doa10∆) | protein stability index (pdr5∆) | protein stability index (san1∆) | protein stability index (ubr1∆)
1 | VLAHRIGLVPLKVDPDM [RPC40] | 2.94 ± 0.27 | – | – | –
2 | SRKRAKKMTKKAKRSNL [PRP8] | 2.94 ± 0.07 | 2.16 ± 0.069 | 2.11 ± 0.094 | 2.52 ± 0.082
3 | EFCDEPSVGVKTMKTFV [RPB5] | 3.15 ± 0.12 | 3.56 ± 0.27 | – | –
4 | LEKVVPLINVVVDILSA [BRR2] | – | – | – | 1.26 ± 0.19
5 | LQQKQRDLILKKGEYAR [SMC3] | 2.3 ± 0.12 | 2.42 ± 0.14 | 2.5 ± 0.29 | 2.71 ± 0.072
6 | EYYAKKRAFTKKVASAN [RPL16A] | 2.06 ± 0.081 | 1.7 ± 0.063 | 1.69 ± 0.11 | 1.57 ± 0.059
7 | ISKTVRFNVVKVSAAAG [RPS11A] | 3.19 ± 0.17 | 1.6 ± 0.13 | – | 1.64 ± 0.11
8 | LKNPEIFQRVGIKPPKG [RPT4] | 2.13 ± 0.12 | 2.18 ± 0.22 | 2.45 ± 0.12 | 2.31 ± 0.18
9 | RSDGMGNVLLNATVVDS [YLR335W/NUP2] | 3.44 ± 0.15 | 3.15 ± 0.099 | 3.29 ± 0.099 | 3.15 ± 0.093
10 | NAKIIDAEVAQFLEQGL [SRP68] | 2.83 ± 0.057 | 2.59 ± 0.045 | 2.12 ± 0.073 | 3.08 ± 0.041
11 | FEAAVKMSDGFNGADIR [RPT4] | 3.66 ± 0.18 | 3.46 ± 0.091 | 3.34 ± 0.053 | 3.39 ± 0.09
12 | SENVFEGLTYKYPARRI [SSN3] | 3.18 ± 0.11 | 3 ± 0.17 | 2.62 ± 0.17 | 2.86 ± 0.089
13 | SVDMSALKDPQTDADRV [RIP1] | 3.27 ± 0.079 | 3.68 ± 0.23 | 3.2 ± 0.23 | 3.56 ± 0.15
14 | YQLYTSNPSGNYTGWKA [PRE9] | 2.9 ± 0.065 | 3.08 ± 0.065 | 3.14 ± 0.055 | 3.17 ± 0.04
15 | ELMAMNITPRLYTDRSR [RPB2] | 1.91 ± 0.12 | 1.68 ± 0.074 | 1.23 ± 0.13 | 1.96 ± 0.074
16 | YRTPGSSGVLSSNIAGT [SSN2] | 3.35 ± 0.12 | 3.29 ± 0.1 | 3.03 ± 0.14 | 3.38 ± 0.088
17 | YDLLISTLTTISGNPPL [SRB5] | 2.43 ± 0.052 | 2.3 ± 0.045 | 1.77 ± 0.07 | 2.46 ± 0.04
18 | VDVELITSINVENDTFI [FAS2] | 3.4 ± 0.1 | 3.37 ± 0.069 | 3.09 ± 0.086 | 3.32 ± 0.072
19 | LYPCYFDINRSHKEGRR [SEC65] | 1.15 ± 0.17 | 1.93 ± 0.16 | 1.09 ± 0.24 | 1.1 ± 0.08
20 | RPTEKPVGRELDPISLI [RPN13] | 2.95 ± 0.11 | 3.4 ± 0.12 | 3.33 ± 0.08 | 3.19 ± 0.094
21 | QQQQQQQNPKFLQSQRQ [SWI1] | 2.84 ± 0.048 | 2.82 ± 0.052 | 2.79 ± 0.045 | 3.25 ± 0.064
22 | HTTQIVNLEDNTQDLLL [YML103C/NUP188] | 3.21 ± 0.11 | 3.35 ± 0.12 | 3.27 ± 0.069 | 3.07 ± 0.086
23 | KPTEVNDSENNSSEEDK [ITC1] | 2.82 ± 0.058 | 2.74 ± 0.082 | 3.17 ± 0.052 | 3.3 ± 0.067
24 | LKISGEEESLHVFQYAN [RPC37] | 1.85 ± 0.13 | 2.21 ± 0.13 | 2.27 ± 0.14 | 2.41 ± 0.071
25 | TEKEEAVAKAAEKKVVR [RPL17A] | 3.44 ± 0.087 | 3.35 ± 0.082 | 3.24 ± 0.053 | 3.24 ± 0.062
26 | SGDNHTQQSHEQQPEQP [RPT4] | 2.96 ± 0.052 | 3.15 ± 0.064 | 3.03 ± 0.06 | 2.95 ± 0.049

Row | Sequence | protein stability index (doa10∆) | protein stability index (pdr5∆) | protein stability index (san1∆) | protein stability index (ubr1∆)
27 | EENNYQYGYSGSSAGMN [SNF6] | 2.22 ± 0.053 | 2.16 ± 0.077 | 1.94 ± 0.12 | 2.5 ± 0.065
28 | GSGNNNEIESRQLTSLG [SNU114] | 3.4 ± 0.16 | 3.32 ± 0.16 | – | 3.19 ± 0.19
29 | LVADGVFYAELNEFFTR [RPS3] | 3.2 ± 0.12 | 3.1 ± 0.12 | 3.08 ± 0.077 | 3.28 ± 0.078
30 | MLRTVTSKTVSNQFKRS [COR1] | 3.11 ± 0.15 | 2.9 ± 0.092 | 2.92 ± 0.083 | 3.02 ± 0.1
31 | SSKLYQMQQQQQAQAQA [GAL11] | 1.89 ± 0.071 | 2.09 ± 0.051 | 1.9 ± 0.082 | 1.82 ± 0.057
32 | THTNLERDEQKRAEKKA [SNF2] | 3.35 ± 0.099 | 3.45 ± 0.11 | 2.77 ± 0.12 | 3.23 ± 0.059
33 | DKTLRLWDVATGETYQR [ASC1] | 3 ± 0.23 | 3.36 ± 0.16 | 2.18 ± 0.19 | 3.42 ± 0.091
34 | SASKHEYSDNFPVSLSQ [SIR4] | 3 ± 0.045 | 2.71 ± 0.039 | 3.06 ± 0.04 | 3.041 ± 0.029
35 | LLAVAIAASYHYPEIED [RPP0] | 1.38 ± 0.074 | 2.11 ± 0.11 | 1.73 ± 0.13 | 1.91 ± 0.08
36 | VKLLKTTVPIVSKKRQK [POP3] | 3.2 ± 0.1 | 2.95 ± 0.069 | 2.87 ± 0.083 | 2.74 ± 0.07
37 | HGVSFKKRAPRAVKEIK [RPL31A] | – | 2.73 ± 0.14 | 2.97 ± 0.17 | 3.2 ± 0.11
38 | TREKVLEDKLRAVLTPL [RRP46] | 2.89 ± 0.17 | 3.05 ± 0.11 | 2.91 ± 0.19 | 2.82 ± 0.11
39 | GCLVKREDLNKAEYVDQ [RPO31] | – | 3.13 ± 0.21 | – | –
40 | NTTKPAFGGLNFGGGNN [YJL041W/NSP1] | 2.71 ± 0.054 | 3.2 ± 0.061 | 3.01 ± 0.045 | 3.13 ± 0.068
41 | TSAVELGAIEQILIFAA [YJL039C/NUP192] | 2.13 ± 0.16 | 2.77 ± 0.071 | 1.77 ± 0.11 | 3.32 ± 0.13
42 | GETRMKMLNEFVKKTSE [SMC2] | 3.28 ± 0.1 | 3 ± 0.092 | 2.91 ± 0.068 | 3.26 ± 0.082
43 | THTEQNNPPKPQKPVPL [SNF2] | 2.88 ± 0.08 | 3.34 ± 0.094 | 3.12 ± 0.049 | 3.15 ± 0.057
44 | EALVQAFAFCIPVYCFS [YCG1] | 1.68 ± 0.071 | 1.83 ± 0.056 | 1.73 ± 0.16 | 1.51 ± 0.064
45 | PTSPSYSPTSPSYSPTS [RPO21] | 2.59 ± 0.044 | 2.99 ± 0.041 | 2.66 ± 0.04 | 2.85 ± 0.037
46 | MKESVVEINSSESDLDE [ESC2] | 3.35 ± 0.071 | 3.06 ± 0.086 | 3.06 ± 0.079 | 3.16 ± 0.068
47 | DVSQLIAGINKKKGLDE [PRP28] | 3.43 ± 0.095 | 3.64 ± 0.11 | 3.29 ± 0.086 | 3.76 ± 0.11
48 | LPNQFPLKIHRTPYLTS [SWI1] | 2.07 ± 0.042 | 1.72 ± 0.045 | 1.65 ± 0.074 | 1.72 ± 0.038
49 | NKTLTLDLKECYQFAEY [ARP7] | 1.96 ± 0.089 | 2.3 ± 0.072 | 1.9 ± 0.17 | 2.69 ± 0.1
50 | SVFDATSDPVMHKQLAY [RPN1] | 2.28 ± 0.11 | 2.17 ± 0.077 | 1.79 ± 0.14 | 1.96 ± 0.082
51 | SYTDAQDKSKKIMNVTT [YMR129W/POM152] | 2.97 ± 0.1 | 2.66 ± 0.11 | 2.88 ± 0.056 | 3.03 ± 0.048
52 | VFQAKMMDMLKQTGRDQ [RPN11] | 2.56 ± 0.061 | 2.58 ± 0.07 | 2.52 ± 0.077 | 2.96 ± 0.062

Source: the supplement of paper PMC9732359
